# Experimental data published in patent publication US20250387497A1, “MULTIVALENT MULTISPECIFIC CONJUGATES AND RELATED COMPOSITIONS AND METHODS OF USE” (Purdue Research Foundation, priority 2022, published 2025).
# How the values were obtained:
# normal urothelium = assay: P2 binding/uptake in cultured normal urothelium cells, anti-HA immunostaining; type: cell-based; conditions: different P2 concentrations
# Description: (§1) FIGS. 4A and 4B show images of immunostaining with an anti-HA antibody of normal (FIG. 4A) and MB49 wild type cancer (FIG. 4B) cells incubated with the highest concentration of P2 conjugates used.
# (§2) Normal (labeled A) and MB49 wild type cancer (labeled B) cells isolated from bladder urothelium were disaggregated and cultured in vitro. Cultured cells were incubated with different concentrations of the P2 MV-MS conjugate and the presence of cell-bound peptide was investigated by immunostaining with an anti-HA antibody using the methodologies described in Example 1.
# [1] = system: MB49 wild type cancer cells; assay: P2 binding in cultured MB49 wild type cancer cells, anti-HA immunostaining; type: cell-based, mouse; conditions: MB49 wild type cancer cells versus normal urothelium cells
# Description: as §1, §2
# T24 cells = assay: Binding and internalization of P1/P2 peptides, anti-HA immunofluorescence, T24 cells; type: cell-based; conditions: human T24 cells
# Description: (§3) Arrows and arrowheads point to examples of internalized peptide in endosomal and late compartments, respectively.
# (§4) The tested conjugates targeted bladder cancer cells and were internalized. See Coon et al. (2012), supra, for description of methodologies. See, e.g., FIGS. 3D and 3E. Given interspecies receptor conservation, the conjugates targeted cells of human, mouse and canine origin (FIG. 3D), and were internalized in GFP-Rab5-positive endosomes (see, e.g., FIG. 3D, mid-panel set) in a time-dependent manner (FIG. 3E).
# MB49 cells = assay: Binding and internalization of P1/P2 peptides, anti-HA immunofluorescence, MB49 cells; type: cell-based; conditions: mouse MB49 cells (LE and WT)
# Description: as §3
# After five minutes, internalized peptide was localized to peripheral early endosomes (arrowheads) and after 45 minutes accumulated in late endosomes/lysosomes (arrows).
# FIGS. 3F-3G show the amount of cell-associated peptide as a function of time as estimated by quantitative microscopy (FIG. 3F) and as a function of dose by quantitative Western blot (FIG. 3G) with anti-HA antibodies (upper panel) followed by band densitometry of triplicates (lower panel).
# as §4
# [2] = system: cells isolated from spontaneous dog tumors and immortalized; assay: Binding and internalization of P1/P2 peptides, anti-HA immunofluorescence, canine bladder tumor cells; type: cell-based
# Description: as §3, §4
Molecule,binding or uptake to normal urothelium (normal urothelium),selectivity for cancer cells [1],binding and internalization of peptide (T24 cells),binding and internalization of peptide (MB49 cells),binding and internalization of peptide [2]
FCGDGFYACYMDVGRAQGKAQGYHWYGYTPQNVIGQAKGQARGVSPPLTLGQLLSG KQAGRQAGKLAKLAKKLAKLAKGQRAGQKAG (HA tag; MV-MS conjugate; P2 conjugate sequence: H-E-F-I) FCGDGFYACYMDVGRAQGKAQGYHWYGYTPQNVIGQAKGQARGVSPPLTLGQLLSGKQAGRQAGKLAKLAKKLAKLAKGQRAGQKAG,no detectable binding or uptake,marked selectivity for cancer cells,bound and internalized,bound and internalized,bound and internalized
YHWYGYTPQNVIGRAQGKAQGKLAKLAKKLAKLAKGQAKGQARGFCGDGFYACY MDVGKQAGRQAGVSPPLTLGQLLSGQRAGQKAG (HA tag; MV-MS conjugate; P1 conjugate sequence: E-I-H-F) YHWYGYTPQNVIGRAQGKAQGKLAKLAKKLAKLAKGQAKGQARGFCGDGFYACYMDVGKQAGRQAGVSPPLTLGQLLSGQRAGQKAG,,,bound and internalized,bound and internalized,bound and internalized
